According to PMC9134599:

Experiments:
[1] = target: human amylin 1 receptor (CTR + RAMP1) (human) (UniProt O60894)
[2] = target: human calcitonin receptor, transcript variant 2 (CT(a) subtype), expressed alone (human)

Chain of UniProt O60894 (O60894 whole entry, looked up): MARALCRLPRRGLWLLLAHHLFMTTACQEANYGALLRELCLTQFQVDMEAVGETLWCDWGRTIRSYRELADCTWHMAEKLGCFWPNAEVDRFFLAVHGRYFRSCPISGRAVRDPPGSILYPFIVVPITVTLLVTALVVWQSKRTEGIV
Chain of human amylin (P10997 34-70): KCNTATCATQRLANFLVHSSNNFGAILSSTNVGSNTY

Row | pEC50 of the amylin-induced current (two-electrode voltage clamp, -70 mV), oocytes expressing AMY1-R, amylin 0.01 to 10 μM [1] | inward current (two-electrode voltage clamp, -70 mV), oocytes expressing CTR, CGRP 0.01 to 10 μM; maximum at 10 μM [2] [μA] | pEC50 of the CGRP-induced inward current (two-electrode voltage clamp, holding potential -70 mV), oocytes expressing CTR [2] | Substance
1 | 6.33 -log M |  |  | human amylin (from UniProt P10997 34-70) (peptide)
2 |  | -1.07 | 5.42 -log M | human α-CGRP (calcitonin gene-related peptide) (from UniProt P06881 83-119)
